Assays:
[1] = target: binding partner of C5A (XPA23); experiment: Biacore
[2] = target: binding partner of C5A (XPA23); experiment: Biacore K-off

Binder	fold affinity vs original [1] [fold]	fold difference in affinity vs original [2] [fold]	fold difference in affinity vs original [1] [fold]
C5A (XPA23) VH K31R (antibody, V domains shown) VH: EVQLLESGGGLVQPGGSLRLSCAASGFTFSRYFMFWVRQAPGKGLEWVSVISPSGGMTRYADSVKGRFTISRDNSKNTLYLQMNSLRAEDTAVYYCARVGYGGNSDYWGQGTLVTVSS VL: DIQMTQSPSSVSASVGDRLTIICRASQDINRWLAWYQQTPGNAPKLLIHSATSLQSGVPSRFSGSGSGTDFTLTINSLQPEDFATYYCQQADSFPLTFGGGTKVEIK	0.9	0.9	–
C5A (XPA23) VH F33D (antibody, V domains shown) VH: EVQLLESGGGLVQPGGSLRLSCAASGFTFSKYDMFWVRQAPGKGLEWVSVISPSGGMTRYADSVKGRFTISRDNSKNTLYLQMNSLRAEDTAVYYCARVGYGGNSDYWGQGTLVTVSS VL: DIQMTQSPSSVSASVGDRLTIICRASQDINRWLAWYQQTPGNAPKLLIHSATSLQSGVPSRFSGSGSGTDFTLTINSLQPEDFATYYCQQADSFPLTFGGGTKVEIK	0.92	0.92	–
C5A (XPA23) VH F33E (antibody, V domains shown) VH: EVQLLESGGGLVQPGGSLRLSCAASGFTFSKYEMFWVRQAPGKGLEWVSVISPSGGMTRYADSVKGRFTISRDNSKNTLYLQMNSLRAEDTAVYYCARVGYGGNSDYWGQGTLVTVSS VL: DIQMTQSPSSVSASVGDRLTIICRASQDINRWLAWYQQTPGNAPKLLIHSATSLQSGVPSRFSGSGSGTDFTLTINSLQPEDFATYYCQQADSFPLTFGGGTKVEIK	0.86	0.86	–
C5A (XPA23) VH F33K (antibody, V domains shown) VH: EVQLLESGGGLVQPGGSLRLSCAASGFTFSKYKMFWVRQAPGKGLEWVSVISPSGGMTRYADSVKGRFTISRDNSKNTLYLQMNSLRAEDTAVYYCARVGYGGNSDYWGQGTLVTVSS VL: DIQMTQSPSSVSASVGDRLTIICRASQDINRWLAWYQQTPGNAPKLLIHSATSLQSGVPSRFSGSGSGTDFTLTINSLQPEDFATYYCQQADSFPLTFGGGTKVEIK	0.85	0.85	–
C5A (XPA23) VH F33S (antibody, V domains shown) VH: EVQLLESGGGLVQPGGSLRLSCAASGFTFSKYSMFWVRQAPGKGLEWVSVISPSGGMTRYADSVKGRFTISRDNSKNTLYLQMNSLRAEDTAVYYCARVGYGGNSDYWGQGTLVTVSS VL: DIQMTQSPSSVSASVGDRLTIICRASQDINRWLAWYQQTPGNAPKLLIHSATSLQSGVPSRFSGSGSGTDFTLTINSLQPEDFATYYCQQADSFPLTFGGGTKVEIK	0.73	0.73	–
C5A (XPA23) VH F33T (antibody, V domains shown) VH: EVQLLESGGGLVQPGGSLRLSCAASGFTFSKYTMFWVRQAPGKGLEWVSVISPSGGMTRYADSVKGRFTISRDNSKNTLYLQMNSLRAEDTAVYYCARVGYGGNSDYWGQGTLVTVSS VL: DIQMTQSPSSVSASVGDRLTIICRASQDINRWLAWYQQTPGNAPKLLIHSATSLQSGVPSRFSGSGSGTDFTLTINSLQPEDFATYYCQQADSFPLTFGGGTKVEIK	–	0.78	0.78
C5A (XPA23) VH F33N (antibody, V domains shown) VH: EVQLLESGGGLVQPGGSLRLSCAASGFTFSKYNMFWVRQAPGKGLEWVSVISPSGGMTRYADSVKGRFTISRDNSKNTLYLQMNSLRAEDTAVYYCARVGYGGNSDYWGQGTLVTVSS VL: DIQMTQSPSSVSASVGDRLTIICRASQDINRWLAWYQQTPGNAPKLLIHSATSLQSGVPSRFSGSGSGTDFTLTINSLQPEDFATYYCQQADSFPLTFGGGTKVEIK	0.97	0.97	–
C5A (XPA23) VH F33Q (antibody, V domains shown) VH: EVQLLESGGGLVQPGGSLRLSCAASGFTFSKYQMFWVRQAPGKGLEWVSVISPSGGMTRYADSVKGRFTISRDNSKNTLYLQMNSLRAEDTAVYYCARVGYGGNSDYWGQGTLVTVSS VL: DIQMTQSPSSVSASVGDRLTIICRASQDINRWLAWYQQTPGNAPKLLIHSATSLQSGVPSRFSGSGSGTDFTLTINSLQPEDFATYYCQQADSFPLTFGGGTKVEIK	0.78	0.78	–
C5A (XPA23) VH F33Y (antibody, V domains shown) VH: EVQLLESGGGLVQPGGSLRLSCAASGFTFSKYYMFWVRQAPGKGLEWVSVISPSGGMTRYADSVKGRFTISRDNSKNTLYLQMNSLRAEDTAVYYCARVGYGGNSDYWGQGTLVTVSS VL: DIQMTQSPSSVSASVGDRLTIICRASQDINRWLAWYQQTPGNAPKLLIHSATSLQSGVPSRFSGSGSGTDFTLTINSLQPEDFATYYCQQADSFPLTFGGGTKVEIK	0.77	0.77	–

More lines, now with the values ahead:

fold affinity vs original [1] [fold]	fold difference in affinity vs original [2] [fold]	fold difference in affinity vs original [1] [fold]	Binder
0.04	0.04	–	C5A (XPA23) VH K31Y (antibody, V domains shown) VH: EVQLLESGGGLVQPGGSLRLSCAASGFTFSYYFMFWVRQAPGKGLEWVSVISPSGGMTRYADSVKGRFTISRDNSKNTLYLQMNSLRAEDTAVYYCARVGYGGNSDYWGQGTLVTVSS VL: DIQMTQSPSSVSASVGDRLTIICRASQDINRWLAWYQQTPGNAPKLLIHSATSLQSGVPSRFSGSGSGTDFTLTINSLQPEDFATYYCQQADSFPLTFGGGTKVEIK
0.68	0.68	–	C5A (XPA23) VH Y32D (antibody, V domains shown) VH: EVQLLESGGGLVQPGGSLRLSCAASGFTFSKDFMFWVRQAPGKGLEWVSVISPSGGMTRYADSVKGRFTISRDNSKNTLYLQMNSLRAEDTAVYYCARVGYGGNSDYWGQGTLVTVSS VL: DIQMTQSPSSVSASVGDRLTIICRASQDINRWLAWYQQTPGNAPKLLIHSATSLQSGVPSRFSGSGSGTDFTLTINSLQPEDFATYYCQQADSFPLTFGGGTKVEIK
0.12	0.12	–	C5A (XPA23) VH Y32E (antibody, V domains shown) VH: EVQLLESGGGLVQPGGSLRLSCAASGFTFSKEFMFWVRQAPGKGLEWVSVISPSGGMTRYADSVKGRFTISRDNSKNTLYLQMNSLRAEDTAVYYCARVGYGGNSDYWGQGTLVTVSS VL: DIQMTQSPSSVSASVGDRLTIICRASQDINRWLAWYQQTPGNAPKLLIHSATSLQSGVPSRFSGSGSGTDFTLTINSLQPEDFATYYCQQADSFPLTFGGGTKVEIK
0.62	0.62	–	C5A (XPA23) VH Y32H (antibody, V domains shown) VH: EVQLLESGGGLVQPGGSLRLSCAASGFTFSKHFMFWVRQAPGKGLEWVSVISPSGGMTRYADSVKGRFTISRDNSKNTLYLQMNSLRAEDTAVYYCARVGYGGNSDYWGQGTLVTVSS VL: DIQMTQSPSSVSASVGDRLTIICRASQDINRWLAWYQQTPGNAPKLLIHSATSLQSGVPSRFSGSGSGTDFTLTINSLQPEDFATYYCQQADSFPLTFGGGTKVEIK
1.33	1.33	–	C5A (XPA23) VH Y32S (antibody, V domains shown) VH: EVQLLESGGGLVQPGGSLRLSCAASGFTFSKSFMFWVRQAPGKGLEWVSVISPSGGMTRYADSVKGRFTISRDNSKNTLYLQMNSLRAEDTAVYYCARVGYGGNSDYWGQGTLVTVSS VL: DIQMTQSPSSVSASVGDRLTIICRASQDINRWLAWYQQTPGNAPKLLIHSATSLQSGVPSRFSGSGSGTDFTLTINSLQPEDFATYYCQQADSFPLTFGGGTKVEIK
–	0.8	0.8	C5A (XPA23) VH Y32T (antibody, V domains shown) VH: EVQLLESGGGLVQPGGSLRLSCAASGFTFSKTFMFWVRQAPGKGLEWVSVISPSGGMTRYADSVKGRFTISRDNSKNTLYLQMNSLRAEDTAVYYCARVGYGGNSDYWGQGTLVTVSS VL: DIQMTQSPSSVSASVGDRLTIICRASQDINRWLAWYQQTPGNAPKLLIHSATSLQSGVPSRFSGSGSGTDFTLTINSLQPEDFATYYCQQADSFPLTFGGGTKVEIK
0.04	0.04	–	C5A (XPA23) VH Y32N (antibody, V domains shown) VH: EVQLLESGGGLVQPGGSLRLSCAASGFTFSKNFMFWVRQAPGKGLEWVSVISPSGGMTRYADSVKGRFTISRDNSKNTLYLQMNSLRAEDTAVYYCARVGYGGNSDYWGQGTLVTVSS VL: DIQMTQSPSSVSASVGDRLTIICRASQDINRWLAWYQQTPGNAPKLLIHSATSLQSGVPSRFSGSGSGTDFTLTINSLQPEDFATYYCQQADSFPLTFGGGTKVEIK
–	0.13	0.13	C5A (XPA23) VH S30G (antibody, V domains shown) VH: EVQLLESGGGLVQPGGSLRLSCAASGFTFGKYFMFWVRQAPGKGLEWVSVISPSGGMTRYADSVKGRFTISRDNSKNTLYLQMNSLRAEDTAVYYCARVGYGGNSDYWGQGTLVTVSS VL: DIQMTQSPSSVSASVGDRLTIICRASQDINRWLAWYQQTPGNAPKLLIHSATSLQSGVPSRFSGSGSGTDFTLTINSLQPEDFATYYCQQADSFPLTFGGGTKVEIK
–	0.77	0.77	C5A (XPA23) VH S30A (antibody, V domains shown) VH: EVQLLESGGGLVQPGGSLRLSCAASGFTFAKYFMFWVRQAPGKGLEWVSVISPSGGMTRYADSVKGRFTISRDNSKNTLYLQMNSLRAEDTAVYYCARVGYGGNSDYWGQGTLVTVSS VL: DIQMTQSPSSVSASVGDRLTIICRASQDINRWLAWYQQTPGNAPKLLIHSATSLQSGVPSRFSGSGSGTDFTLTINSLQPEDFATYYCQQADSFPLTFGGGTKVEIK
–	0.08	0.08	C5A (XPA23) VH S30I (antibody, V domains shown) VH: EVQLLESGGGLVQPGGSLRLSCAASGFTFIKYFMFWVRQAPGKGLEWVSVISPSGGMTRYADSVKGRFTISRDNSKNTLYLQMNSLRAEDTAVYYCARVGYGGNSDYWGQGTLVTVSS VL: DIQMTQSPSSVSASVGDRLTIICRASQDINRWLAWYQQTPGNAPKLLIHSATSLQSGVPSRFSGSGSGTDFTLTINSLQPEDFATYYCQQADSFPLTFGGGTKVEIK
–	0.91	0.91	C5A (XPA23) VH S30L (antibody, V domains shown) VH: EVQLLESGGGLVQPGGSLRLSCAASGFTFLKYFMFWVRQAPGKGLEWVSVISPSGGMTRYADSVKGRFTISRDNSKNTLYLQMNSLRAEDTAVYYCARVGYGGNSDYWGQGTLVTVSS VL: DIQMTQSPSSVSASVGDRLTIICRASQDINRWLAWYQQTPGNAPKLLIHSATSLQSGVPSRFSGSGSGTDFTLTINSLQPEDFATYYCQQADSFPLTFGGGTKVEIK

Reference: US20110118447A1
